According to patent publication US20060172360:

B1: HA-JIK (human JNK/SAPK-inhibitory kinase ligated with HA-tag at its N-terminus) (protein)
chain: MRKGVLKDPEIADLFYKDDPEELFIGLHEIGHGSFGAVYFATNAHTSEVVAIKKMSYSGKQTHEKWQDILKEVKFLRQLKHPNTIEYKGCYLKEHTAWLVMEYCLGSASDLLEVHKKPLQEVEIAAITHGALHGLAYLHSHALIHRDIKAGNILLTEPGQVKLADFGSASMASPANSFVGTPYWMAPEVILAMDEGQYDGKVDIWSLGITCIELAERKPPLFNMNAMSALYHIAQNDSPTLQSNEWTDSFRRFVDYCLQKIPQERPTSAELLRHDFVRRDRPLRVLIDLIQRTKDAVRELDNLQYRKMKKILFQETRNGPLNESQEDEEDSEHGTSLNREMDSLGSNHSIPSMSVSTGSQSSSVNSMQEVMDESSSELVMMHDDESTINSSSSVVHKKDHVFIRDEAGHGDPRPEPRPTQSVQSQALHYRNRERFATIKSASLVTRQIHEHEQENELREQMSGYKRMRRQHQKQLIALENKLKAEMDEHRLKLQKEVETHANNSSIELEKLAKKQVAIIEKEAKVAAADEKKFQQQILAQQKKDLTTFLESQKKQYKICKEKIKEEMNEDHSTPKKEKQERISKHKENLQHTQAEEEAHLLTQQRLYYDKNCRFFKRKIMIKRHEVEQQNIREELNKKRTQKEMEHAMLIRHDESTRELEYRQLHTLQKLRMDLIRLQHQTELENQLEYNKRRERELHRKHVMELRQQPKNLKAMEMQIKKQFQDTCKVQTKQYKALKNHQLEVTPKNEHKTILKTLKDEQTRKLAILAEQYEQSINEMMASQALRLDEAQEAECQALRLQLQQEMELLNAYQSKIKMQTEAQHERELQKLEQRVSLRRAHLEQKIEEELAALQKERSERIKNLLERQEREIETFDMESLRMGFGNLVTLDFPKEDYR
B2: FLAG-PAK4 (human p21-activated kinase 4 ligated with FLAG-tag at its N-terminus) (protein)
chain: MFGKRKKRVEISAPSNFEHRVHTGFDQHEQKFTGLPRQWQSLIEESARRPKPLVDPACITSIQPGAPKTIVRGSKGAKDGALTLLLDEFENMSVTRSNSLRRDSPPPPARARQENGMPEEPATTARGGPGKAGSRGRFAGHSEAGGGSGDRRRAGPEKRPKSSREGSGGPQESSRDKRPLSGPDVGTPQPAGLASGAKLAAGRPFNTYPRADTDHPSRGAQGEPHDVAPNGPSAGGLAIPQSSSSSSRPPTRARGAPSPGVLGPHASEPQLAPPACTPAAPAVPGPPGPRSPQREPQRVSHEQFRAALQLVVDPGDPRSYLDNFIKIGEGSTGIVCIATVRSSGKLVAVKKMDLRKQQRRELLFNEVVIMRDYQHENVVEMYNSYLVGDELWVVMEFLEGGALTDIVTHTRMNEEQIAAVCLAVLQALSVLHAQGVIHRDIKSDSILLTHDGRVKLSDFGFCAQVSKEVPRRKSLVGTPYWMAPELISRLPYGPEVDIWSLGIMVIEMVDGEPPYFNEPPLKAMKMIRDNLPPRLKNLHKVSPSLKGFLDRLLVRDPAQRATAAELLKHPFLAKAGPPASIVPLMRQNRTR

How the values were obtained:
[1] = molecular target: GST-MKK7 (unactive/inactive, Upstate) [GST: P08515]
[2] = molecular target: GST (glutathione S-transferase, negative control substrate) [GST: P08515]

Protein	in-vitro phosphorylation of the substrate (immune complex phosphorylation method, [γ-32P]ATP, SDS-PAGE, autoradiography) [1]	in-vitro phosphorylation of the substrate (immune complex phosphorylation method, [γ-32P]ATP, SDS-PAGE, autoradiography) [2]
B1	The phosphorylation of GST-MKK7 by JIK was observed	The phosphorylation was not observed when GST was used as a substrate for a negative control
B2	The phosphorylation of GST-MKK7 by PAK4 was observed	The phosphorylation was not observed when GST was used as a substrate for a negative control
